Experimental findings from patent publication US20260224701A1 are described below.

For test [1], the target named is Human rhB7-H3 (human) (UniProt Q5ZPR3). As to the kind of experiment: SPR (Biacore 8K/T200), purified IgG as ligand, rhB7-H3 as analyte. (Surface plasmon resonance follows binding to a sensor surface in real time, without labels.)
Test [2] has the same target. As to the kind of experiment: SPR (Biacore 8K/T200), antibody captured via Fc, B7-H3 antigen as analyte at 1.17-75 nM.
Test [3] concerns the target human 4Ig-B7-H3 extracellular domain (human) (UniProt Q5ZPR3). As to the kind of experiment: biolayer interferometry (Octet), antibody captured on the probe, extracellular domain in solution. On the technique in general: In BLI a coated tip is dipped into the sample, and binding shifts an interference pattern.
Test [4] deals with Porcine 4Ig-B7-H3 extracellular domain (porcine). Described as above.
Sequence of Porcine 4Ig-B7-H3 extracellular domain (porcine) (chain, as listed by the source): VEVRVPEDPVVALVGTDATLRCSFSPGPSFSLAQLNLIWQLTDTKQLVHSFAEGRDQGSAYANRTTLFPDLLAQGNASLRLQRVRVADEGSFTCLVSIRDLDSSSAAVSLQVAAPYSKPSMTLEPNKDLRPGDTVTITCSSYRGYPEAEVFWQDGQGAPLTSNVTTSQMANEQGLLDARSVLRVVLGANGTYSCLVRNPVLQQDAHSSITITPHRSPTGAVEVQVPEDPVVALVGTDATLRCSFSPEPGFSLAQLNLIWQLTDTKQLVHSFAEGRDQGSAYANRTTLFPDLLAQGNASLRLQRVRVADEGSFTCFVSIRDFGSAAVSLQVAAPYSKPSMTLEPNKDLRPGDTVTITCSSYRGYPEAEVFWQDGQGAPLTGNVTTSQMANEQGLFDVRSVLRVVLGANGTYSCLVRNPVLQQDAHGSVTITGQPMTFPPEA
In test [5] the target is human 2Ig-B7-H3 extracellular domain (human) (UniProt Q5ZPR3). Described as above.
Test [6] has as its target Human rhB7-H3 (human) (UniProt Q5ZPR3). The test can be described thus: SPR (Biacore 8K/T200), Fab-SASA captured on immobilised albumin, B7-H3 as analyte, 1:1 model.
Test [7] has as its target human 4Ig-B7-H3 extracellular domain (human) (UniProt Q5ZPR3). As to the kind of experiment: biolayer interferometry (Octet); ratio of the KD values against 2Ig-B7-H3 as reference.

Sequence of human 4Ig-B7-H3 extracellular domain (human) (Q5ZPR3 29-466): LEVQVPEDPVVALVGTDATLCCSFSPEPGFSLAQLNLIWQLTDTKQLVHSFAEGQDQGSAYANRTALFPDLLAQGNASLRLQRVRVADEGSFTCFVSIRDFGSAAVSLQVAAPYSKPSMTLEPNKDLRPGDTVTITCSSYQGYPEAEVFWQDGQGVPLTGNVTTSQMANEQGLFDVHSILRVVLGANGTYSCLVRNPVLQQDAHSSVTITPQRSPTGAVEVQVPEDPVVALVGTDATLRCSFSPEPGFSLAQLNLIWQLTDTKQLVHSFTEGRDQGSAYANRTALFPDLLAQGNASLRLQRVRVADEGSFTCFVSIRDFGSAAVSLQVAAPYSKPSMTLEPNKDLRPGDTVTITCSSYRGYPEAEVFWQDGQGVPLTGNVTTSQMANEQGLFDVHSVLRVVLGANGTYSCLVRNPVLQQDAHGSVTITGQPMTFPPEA

B1: MIL33B chimeric antibody (full-length IgG) (antibody, V domains shown)
VH: EVQLQQSGPELVKPGASVKMSCKASGYTFTSYVMHWVRQSPGQGLEGIGYINSYSDGTKYNEKFKGKATLTSDKSSSTAYMELSGLTSEDSAVYYCARWGGLGNGAMDYWGQGTSVTVSS
VL: QIVLTQSPAIMSASPGEKVTMTCSVSSSVNYMHWYQQKSGTSPKRWIYDTSKLASGVPARFSASGSGTSYSLTISSMEAEDAATYYCQQWTSNPLTFGAGTKLELKR
A word on the Kd: it is the equilibrium constant for the complex coming apart. Read a high Kd as lower affinity. Broadly, the koff is a measure of how fast the partners let go of each other. As usually defined, the kon is the second-order rate constant of association. The low end stands for slow association, the high end for fast association. Regarding B1, the Kd in test [1] is 0.148 nM; in test [2] it was 0.199 nM; in test [3], 0.16 nM. Moreover, the dissociation rate constant (koff) was determined as 7.16e-05 s⁻¹ in test [1] and 0.000121 s⁻¹ in test [2]. For the same molecule, the kon is 482000 M⁻¹ s⁻¹ in test [1] and 609000 M⁻¹ s⁻¹ in test [2].

B2: MIL33B-mIgG2a (murine MIL33B antibody) (antibody, from a related filing, V domains shown)
VH: EVQLQQSGPELVKPGASVKMSCKASGYTFTSYVMHWVRQSPGQGLEGIGYINSYSDGTKYNEKFKGKATLTSDKSSSTAYMELSGLTSEDSAVYYCARWGGLGNGAMDYWGQGTSVTVSS
VL: QIVLTQSPAIMSASPGEKVTMTCSVSSSVNYMHWYQQKSGTSPKRWIYDTSKLASGVPARFSASGSGTSYSLTISSMEAEDAATYYCQQWTSNPLTFGAGTKLELK
For the molecule B2, the results for the Kd in test [4], in test [5] and in test [3] were 0.102 nM, 0.781 nM and 0.0807 nM, respectively.

B3: Chimeric Fab-SASA (Fab, V domains shown)
VH: EVQLQQSGPELVKPGASVKMSCKASGYTFTSYVMHWVRQSPGQGLEGIGYINSYSDGTKYNEKFKGKATLTSDKSSSTAYMELSGLTSEDSAVYYCARWGGLGNGAMDYWGQGTSVTVSS
VL: QIVLTQSPAIMSASPGEKVTMTCSVSSSVNYMHWYQQKSGTSPKRWIYDTSKLASGVPARFSASGSGTSYSLTISSMEAEDAATYYCQQWTSNPLTFGAGTKLELKR
On to B3, for which, in test [6], the Kd was 0.499 nM, the dissociation rate constant (koff) is 0.000131 s⁻¹ and the kon worked out at 262000 M⁻¹ s⁻¹.

B4: MIL33B-H3-hIgG1 (antibody, V domains shown)
VH: QVQLVQSGAEVKKPGASVKVSCKASGYTFTSYVMHWVRQAPGQRLEWMGYINSYSDGTKYNEKFKGRVTITRDTSASTAYMELSSLRSEDTAVYYCARWGGLGNGAMDYWGQGTLVTVSS
VL: EIVLTQSPATLSLSPGERATLSCSVSSSVNYMHWYQQKPGQAPRRLIYDTSKLASGIPARFSGSGSGTDYTLTISSLEPEDFAVYYCQQWTSNPLTFGQGTKLEIK
In test [1], B4 registered a Kd of 0.243 nM, a koff of 0.000117 s⁻¹ and a kon of 481000 M⁻¹ s⁻¹. Besides, the selectivity ratio, 4Ig-B7-H3 over 2Ig-B7-H3 in test [7] was determined as 360. For the same molecule, the Kd in test [3] amounted to 0.121 nM.

B5: MIL33B-H2-hIgG1 (antibody, V domains shown)
VH: QVQLVQSGAEVKKPGASVKVSCKASGYTFTSYVMHWVRQAPGQRLEWMGYINSYSDGTKYNEKFKGRATITRDTSASTAYMELSSLRSEDTAVYYCARWGGLGNGAMDYWGQGTLVTVSS
VL: EIVLTQSPATLSLSPGERATLSCSVSSSVNYMHWYQQKPGQAPRRLIYDTSKLASGIPARFSGSGSGTDYTLTISSLEPEDFAVYYCQQWTSNPLTFGQGTKLEIK
Regarding B5, in test [1], the Kd was determined as 0.226 nM, the koff came to 0.000105 s⁻¹ and the kon was 464000 M⁻¹ s⁻¹. The same molecule came in with a Kd in test [3] of 0.12 nM.

B6: AHF15938 Fab-SASA (Fab, V domains shown)
VH: QVQLVQSGAEVKKPGASVKVSCKASGYTFTSYVMHWVRQAPGQRLEWMGYINSYSDGTKYNEKFKGRATITRDTSASTAYMELSSLRSEDTAVYYCARWGGLGNGAMDYWGQGTLVTVSS
VL: EIVLTQSPATLSLSPGERATLSCSVSSSVNYMHWYQQKPGQAPRRLIYDTSKLASGIPARFSGSGSGTDYTLTISSLEPEDFAVYYCQQWTSNPLTFGQGTKLEIK
In test [6], B6 came in with a Kd of 0.00804 nM, a koff of 1.97e-06 s⁻¹ and a kon of 245000 M⁻¹ s⁻¹.

B7: Grafted Fab-SASA (Fab, V domains shown)
VH: QVQLVQSGAEVKKPGASVKVSCKASGYTFTSYVMHWVRQAPGQRLEWMGYINSYSDGTKYNEKFKGRVTITRDTSASTAYMELSSLRSEDTAVYYCARWGGLGNGAMDYWGQGTLVTVSS
VL: EIVLTQSPATLSLSPGERATLSCSVSSSVNYMHWYQQKPGQAPRLLIYDTSKLASGIPARFSGSGSGTDFTLTISSLEPEDFAVYYCQQWTSNPLTFGQGTKLEIKR
In test [6], B7 registered a Kd of 28.5 nM, an off-rate (koff) of 0.0117 s⁻¹ and a kon of 413000 M⁻¹ s⁻¹.

B8: AHF15945 Fab-SASA (Fab, V domains shown)
VH: QVQLVQSGAEVKKPGASVKVSCKASGYTFTSYVMHWVRQAPGQRLEWMGYINSYSDGTKYNEKFKGRVTITSDTSASTAYMELSSLRSEDTAVYYCARWGGLGNGAMDYWGQGTLVTVSS
VL: EIVLTQSPATLSLSPGERATLSCSVSSSVNYMHWYQQKPGQAPRRLIYDTSKLASGIPARFSGSGSGTDYTLTISSLEPEDFAVYYCQQWTSNPLTFGQGTKLEIK
Regarding B8, in test [6], the equilibrium dissociation constant (Kd) amounted to 0.888 nM, the koff is 0.000244 s⁻¹ and the kon came out at 274000 M⁻¹ s⁻¹.

B9: MIL33B-H1-hIgG1 (antibody, V domains shown)
VH: QVQLVQSGAEVKKPGASVKVSCKASGYTFTSYVMHWVRQAPGQRLEWMGYINSYSDGTKYNEKFKGRVTITSDTSASTAYMELSSLRSEDTAVYYCARWGGLGNGAMDYWGQGTLVTVSS
VL: EIVLTQSPATLSLSPGERATLSCSVSSSVNYMHWYQQKPGQAPRRLIYDTSKLASGIPARFSGSGSGTDYTLTISSLEPEDFAVYYCQQWTSNPLTFGQGTKLEIK
As for B9, in test [1], the Kd is 0.233 nM, the koff came to 0.000139 s⁻¹ and the kon turned out to be 597000 M⁻¹ s⁻¹. This molecule also came in with a Kd in test [3] of 0.153 nM.

B10: AHF15948 Fab-SASA (Fab, V domains shown)
VH: QVQLVQSGAEVKKPGASVKVSCKASGYTFTSYVMHWVRQAPGQRLEWMGYINSYSDGTKYNEKFKGRVTITRDTSASTAYMELSSLRSEDTAVYYCARWGGLGNGAMDYWGQGTLVTVSS
VL: EIVLTQSPATLSLSPGERATLSCSVSSSVNYMHWYQQKPGQAPRRLIYDTSKLASGIPARFSGSGSGTDYTLTISSLEPEDFAVYYCQQWTSNPLTFGQGTKLEIK
In test [6], B10 displayed a Kd of 0.366 nM, an off-rate constant (koff) of 9.35e-05 s⁻¹ and a kon of 255000 M⁻¹ s⁻¹.
